Measurements reported in patent publication US20210317456.

Test system: Immunoglobulin G (total IgG)
Assay: pulldown
Settings: P = 2NapdU; SB18, 37C, bead partitioning

Sequence | Kd
AGACTGCGGTTACCTTGTAGGCGATTATGG [5334-8_31] | > 1000 nM
AGACTGCGGTTACCTTGTAGGCGATTATGGG [5334-8_30] | 80.9 nM
AGACTGCGGTTACCTTGTAGGCGATTATGGGC [5334-8_29] | 15.6 nM
AGACTGCGGTTACCTTGTAGGCGATTATGGGCAG [5334-8_11] | 4.69 nM
CGGCACTCCACATCCAAGACTGCGGTTACCTTGT [5334-8_19] | > 1000 nM
CGGCACTCCACATCCAAGACTGCGGTTACCTTGTAGGCGATT [5334-8_15] | > 1000 nM
CGGCACTCCACATCCAAGACTGCGGTTACCTTGTAGGCGATTATGG [5334-8_13] | > 1000 nM
CGGCACTCCACATCCAAGACTGCGGTTACCTTGTAGGCGATTATGGGC [5334-8_12] | 25.8 nM
CGGTTACCTTGTAGGCGATTATGGGCAG [5334-8_26] | > 1000 nM
CTGCGGTTACCTTGTAGGCGATTATGGGCAG [5334-8_23] | 4.04 nM
GCACTCCACATCCAAGACTGCGGTTACCTTGTAGGCGATTATGGGCAG [5334-8_4] | 17.3 nM
GCGGTTACCTTGTAGGCGATTATGGGCAG [5334-8_25] | 5.83 nM
GGTTACCTTGTAGGCGATTATGGGCAG [5334-8_27] | 279 nM

Same assay, conditions: P = NapdU; SB18, 37C, bead partitioning

Sequence | Kd
ACGATGGCGAACTCCCTGAATGCTCTTGTCTTAAGTCCCCAACA [14125-144_6] | 7.49 nM
ACGATTTTCAGTTGGATCCAGTACCTGGCTGGAGAGAA [5406-56_9] | > 1000 nM
CATACGGTACGATTTTCAGTTGGATCCAGTACCTGGCTGGAGAGAA [5406-56_5] | 7.91 nM
CCTCCATACGGTACGATTTTCAGTTGGATCCAGT [5406-56_19] | > 1000 nM
CCTCCATACGGTACGATTTTCAGTTGGATCCAGTAC [5406-56_18] | 42.2 nM
CCTCCATACGGTACGATTTTCAGTTGGATCCAGTACCT [5406-56_17] | 4.14 nM
CCTCCATACGGTACGATTTTCAGTTGGATCCAGTACCTGG [5406-56_16] | 2.58 nM
CCTCCATACGGTACGATTTTCAGTTGGATCCAGTACCTGGCT [5406-56_15] | 4.64 nM
CCTCCATACGGTACGATTTTCAGTTGGATCCAGTACCTGGCTGG [5406-56_14] | 3 nM
CCTCCATACGGTACGATTTTCAGTTGGATCCAGTACCTGGCTGGAG [5406-56_13] | 2.61 nM
CCTCCATACGGTACGATTTTCAGTTGGATCCAGTACCTGGCTGGAGAG [5406-56_12] | 2.88 nM
CGGTACGATTTTCAGTTGGATCCAGTACC [5406-56_41] | 2.74 nM
CGGTACGATTTTCAGTTGGATCCAGTACCTGGCTGGAGAGAA [5406-56_7] | 13 nM
GAACTCCCTGAATGCTCTTGTCTTAAGTCCCCAACA [14125-144_10] | > 1000 nM
GATTTTCAGTTGGATCCAGTACCTGGCTGGAGAGAA [5406-56_10] | > 1000 nM
GCCTGCACGATGGCGAACTCCCTGAATGCTCTTGTC [14125-144_18] | > 1000 nM
GCCTGCACGATGGCGAACTCCCTGAATGCTCTTGTCTT [14125-144_17] | 15.4 nM
GCCTGCACGATGGCGAACTCCCTGAATGCTCTTGTCTTAAGT [14125-144_15] | 14.6 nM
GCGAACTCCCTGAATGCTCTTGTCTTAAGTCCCCAACA [14125-144_9] | > 1000 nM
GGCGAACTCCCTGAATGCTCTTGTCTT [14125-144_31] | > 1000 nM
GGCGAACTCCCTGAATGCTCTTGTCTTA [14125-144_27] | > 1000 nM
GGCGAACTCCCTGAATGCTCTTGTCTTAA [14125-144_23] | > 1000 nM
GTACGATTTTCAGTTGGATCCAGTAC [5406-56_49] | 17.6 nM
GTACGATTTTCAGTTGGATCCAGTACCT [5406-56_37] | 9.44 nM
GTACGATTTTCAGTTGGATCCAGTACCTG [5406-56_31] | 14.8 nM
GTACGATTTTCAGTTGGATCCAGTACCTGGCTGGAGAGAA [5406-56_8] | 78.1 nM
TACGATTTTCAGTTGGATCCAGTACC [5406-56_44] | 36.2 nM
TACGATTTTCAGTTGGATCCAGTACCT [5406-56_38] | > 1000 nM

Same assay, conditions: P = NapdU; SB18, 37C; 25-mer core

Sequence | Kd
TACGATTTTCAGTTGGATCCAGTAC [5406-56_50] | 18.8 nM
